This sample holds only a part of the variants without activity.
B1: TPR 5TU (parent)
chain: GGAUCUUCUCGAUCUAACAAAAAAGACAAAUCUGCCACAAAGCUUGAGAGCAUCUUCGGAUGCAGAGGCGGCAGCCUUCGGUGGCGCGAUAGCGCCAACGUUCUCAACUAUGACACGCAAAACGCGUGCUCCGUUGAAUGGAGUUUAUCAUG

Variants of: B1
Assay: polymerase ribozyme fitness, log enrichment relative to wild type (log ratio); higher = more active; in vitro selection for triplet polymerase activity
In short: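 A heterodimeric triplet polymerase ribozyme had each of its subunits mutagenized by PCR into a library, which was transcribed. One round of in vitro selection, done in triplicate, annealed each library with a biotinylated primer, its partner subunit and triplets, then incubated it frozen at −7 °C before gel excision of extended constructs, streptavidin-bead capture and RT-PCR. Fitness is the logarithm of genotype enrichment relative to wild-type enrichment, based on Illumina sequencing of inputs and outputs and inverse-variance-weighted replicate averages. A base-2 logarithm is used, and genotypes were kept only with ≥10 input reads and ≥1 read per output.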

Row | Variant | polymerase ribozyme fitness (log ratio)
1 | U55G U56A G68A C96U | ≤ -4.2
2 | U55G C93U U101G | -0.936
3 | U55A G143C | -2.99
4 | U55A C93U C95U C96U | -3
5 | U55C U109G | -0.246
6 | U55G G59C G94C U102A U127A U135C | ≤ -4.2
7 | U55G G84U A106G | -1.26
8 | U55A U102G | -4.04
9 | U55A G62A C69G G71A | ≤ -4.2
10 | U55G G59C A142C | -3.24
11 | U55G A60G | 0.467
12 | U55A C96A G136C | -3.78
13 | U55A A142U | -0.464
14 | U55C A73U A97U U144G | -1.48
15 | U55C C85G | -1.66
16 | U55C C85A | -1.24
17 | U55A G81C C118G G141A U146A | -2.94
18 | U56A C69G U148A | -4.17
19 | U55A A113U A121G U139G G141U U144A | ≤ -4.2
20 | U55A C57A A60G A73U C132U U145G | -2.26
21 | U55A G84A G117U | -0.634

Row | Variant | polymerase ribozyme fitness (log ratio)
22 | U55A C132A A137G G143A U146G | ≤ -4.2
23 | U55A U56A A106C | -1.06
24 | U55A U56C G58A G92C A119U U145G | -2.87
25 | U55G C72U G83U C96U | -1.11
26 | U55A C63A G83C G84U C125G U135A | ≤ -4.2
27 | U55G G133U | -4.16
28 | U56A C95U A98U | -1.6
29 | U56A C95U A98C | -0.392
30 | U55C U78C G117U U135G U151G | ≤ -4.2
31 | U56A A60G C125G | -0.563
32 | U56A C85U A121U C123G G124A U134A | -2.61
33 | U55A G58A C85A C131U | 0.931
34 | U56A A89G C99A | -1.89
35 | U56A C76U | 0.105
36 | U55A G84U G152C | -3.48
37 | U55A C79G G81A | -4.18
38 | U56A A89U C96G | -1
39 | U55A C72U C79A A107G | ≤ -4.2
40 | U55A C105G G141U | -2.82
41 | U56A A115G G124C | -1.61
42 | U55A U90C C95U U146C C149A | ≤ -4.2

Row | Variant | polymerase ribozyme fitness (log ratio)
43 | U55A G59C G94U A107C | ≤ -4.2
44 | U56A C79U G83A | ≤ -4.2
45 | U55A C125A | -0.912
46 | U55G C87U U130C | -0.00301
47 | U55G A97G | 0.0201
48 | U55G A107U A122U | -3.21
49 | U55C C85U G136C | -3.51
50 | U55G A110G | -2.87
51 | U55A A113C | -2.92
52 | U55A A121U | -0.372
53 | U55G U145A | -0.604
54 | U55A G84U G128U U134C | -4.17
55 | U56A A91G U148C | -3.72
56 | U55A C57U A66C G94A A106G G128U G140A | ≤ -4.2
57 | U55A C57G C87G C93U U104G | ≤ -4.2
58 | U56A C85U A142U | -1.06
59 | U55G G68C A107C C125A U151G | ≤ -4.2
60 | U56A C85G C93G A107U U111G | ≤ -4.2
61 | U55A G86U A91U G133U A147U | ≤ -4.2
62 | U55A C79A A121C | ≤ -4.2
63 | U55G U134A U139A | ≤ -4.2

Row | Variant | polymerase ribozyme fitness (log ratio)
64 | U55A C69A U77C A89G | ≤ -4.2
65 | U55A C103G | -2.22
66 | U55A C103U | -0.726
67 | U55A A150C | -3.6
68 | U55A G124U U139G | 0.0477
69 | U55A C96G A115U A119G | -2.42
70 | U56A A110C | -3.84
71 | U55G G84A A89U C103U | -1.64
72 | U55G G70A C129G | ≤ -4.2
73 | U55A C76G A138C | ≤ -4.2
74 | U56A C93A | -2.63
75 | U56A C93U | -2.13
76 | U56A C93G | -3.55
77 | U55A G59A U148G | -2.52
78 | U56A A113G | -1.32
79 | U56A A60C G92U | -1.73
80 | U55A C69A A97U U102C C149A | ≤ -4.2
81 | U55A C57A C95U | -0.372
82 | U56A C57G A113C | -1.82
83 | U55A G71C A106U C125A | ≤ -4.2
